# Test results: patent US6642203B1, “Crustacean antimicrobial peptides” (Institut Francais de Recherche pour l'Exploitation de la Mer, priority 1997, dated 2003)
# B1: Penaeidin 3: antimicrobial peptide of 62 amino acids, about 6.6 kDa, from Penaeus vannamei haemolymph (protein, listed as Penaeus vannamei)
# chain: EVYKGGYTRPIPRPPPFVRPLPGGPIGPYNGCPVSCRGISFSQARSCCSRLGRCCHVGKGYS
# Assays:
# Type in all cases: cell-based
# Fusarium oxysporum = test: Antifungal activity, inhibition of growth in liquid phase
# Protocol: (§1) The antifungal activity was determined against Neurospora crassa and Fusarium oxysporum by a test of inhibition of growth in liquid phase. 80 μl of fungal spores (final concentration: 10^4 spores/ml) are suspended in ½ Potato Dextrose Broth (DIFCO) supplemented with tetracycline (10 μg/ml) and cefotaxime (100 μg/ml). This suspension was added to 10 μl of the fraction to be tested in microtitre plates. The final volume is brought to 100 μl by addition of 10 μl of water. Growth inhibition can be observed under a microscope after 24 hours of incubation at 25° C. in the dark, and measured by the variation in the optical density at 600 nm after 48 hours.
# Neurospora crassa = test: as above
# Protocol: as §1
# Micrococcus luteus = test: Measurement of the bacteriostatic properties (CFU over time); settings: for colonies formed (cfu): 18 μM (8 times MIC)
# Protocol: A midlogarithmic phase culture of Micrococcus luteus in the “Poor Broth” medium defined above was incubated at 30° C. in the presence of the peptide or (as control) of water. The final concentration of the molecules tested is 8 times higher than the MIC. 20-μl alquots are collected at various time intervals and cultured on nutrient agar plate. The number of colonies formed (CFU) is determined after 24 hours of incubation at 37° C.
# Escherichia coli D31 = test: Antibacterial assay, inhibition of growth in liquid phase (MIC); settings: Escherichia coli D31, 24 h at 30° C.
# Protocol: The bacteria are cultured with a starting optical density A600=0.001 in “Poor-Broth” nutrient medium (1% bactotryptone, 0.5% NaCl w/v).
# The fractions were tested by inhibition of growth in liquid phase.
# 10 μl aliquots of each fraction to be tested are incubated in microtitre plates with 100 μl of a suspension of bacteria at the midlogarithmic phase.
# The bacterial growth is measured by determining the optical density A600 after an incubation of 24 hours at 30° C.
# An identical procedure was used to determine the minimum inhibitory concentration (MIC) of the molecules on these bacterial strains. The MIC values correspond to an interval a-b of peptide concentrations, where a represents the highest concentration at which bacterial growth is observed, and b is the lowest concentration which causes 100% inhibition of growth.
molecule,measurement,setting,value
B1,MIC,Fusarium oxysporum,> 5 µM
same,MIC,Neurospora crassa,> 5 µM
same,colonies formed (cfu),Micrococcus luteus; incubation time 1 min,4.30 10^4 cfu/ml
same,colonies formed (cfu),Micrococcus luteus; incubation time 30 min,4.45 10^4 cfu/ml
same,colonies formed (cfu),Micrococcus luteus; incubation time 2 h,3.15 10^4 cfu/ml
same,colonies formed (cfu),Micrococcus luteus; incubation time 4 h,4.60 10^4 cfu/ml
same,colonies formed (cfu),Micrococcus luteus; incubation time 7 h,4.50 10^4 cfu/ml
same,colonies formed (cfu),Micrococcus luteus; incubation time 24 h,5.60 10^4 cfu/ml
same,bacterial growth,"Micrococcus luteus; 18 μM, after an incubation of 24 hours",no bacterial growth is observed
same,kind of antibacterial effect,"Micrococcus luteus; 18 μM, number of colonies constant over sample collections",bacteriostatic effect
same,MIC,Escherichia coli D31,> 5 µM
